Molecular target: GST-p62 FIR (aa 326-380) (human, UniProt Q13501 326-380)
Assay: SPR

B1: FIP200 CTR (aa 1458-1594) (domain or fragment)
chain: RIMLLERTLQLKEEENKRLNQRLMSQSMSSVSSRHSEKIAIRDFQVGDLVLIILDERHDNYVLFTVSPTLYFLHSESLPALDLKPGEGASGASRRPWVLGKVMEKEYCQAKKAQNRFKVPLGTKFYRVKAVSWNKKV
With B1 the Kd was 5.1 µM.

Reference: PMC6477179 (2019)
